In paper PMC5828407 (Veterinary Research, 2018):
Where no end group is shown, it is not given here. The star is where a group is joined. FITC = O=C1OC2(c3ccc(O)cc3Oc3cc(O)ccc32)c2ccc(NC(=S)*)cc21; Ahx = NCCCCCC(=O)O

T1: porcine aminopeptidase N (APN), His-tagged whole protein (porcine, UniProt P15145 1-963)
T1 sequence: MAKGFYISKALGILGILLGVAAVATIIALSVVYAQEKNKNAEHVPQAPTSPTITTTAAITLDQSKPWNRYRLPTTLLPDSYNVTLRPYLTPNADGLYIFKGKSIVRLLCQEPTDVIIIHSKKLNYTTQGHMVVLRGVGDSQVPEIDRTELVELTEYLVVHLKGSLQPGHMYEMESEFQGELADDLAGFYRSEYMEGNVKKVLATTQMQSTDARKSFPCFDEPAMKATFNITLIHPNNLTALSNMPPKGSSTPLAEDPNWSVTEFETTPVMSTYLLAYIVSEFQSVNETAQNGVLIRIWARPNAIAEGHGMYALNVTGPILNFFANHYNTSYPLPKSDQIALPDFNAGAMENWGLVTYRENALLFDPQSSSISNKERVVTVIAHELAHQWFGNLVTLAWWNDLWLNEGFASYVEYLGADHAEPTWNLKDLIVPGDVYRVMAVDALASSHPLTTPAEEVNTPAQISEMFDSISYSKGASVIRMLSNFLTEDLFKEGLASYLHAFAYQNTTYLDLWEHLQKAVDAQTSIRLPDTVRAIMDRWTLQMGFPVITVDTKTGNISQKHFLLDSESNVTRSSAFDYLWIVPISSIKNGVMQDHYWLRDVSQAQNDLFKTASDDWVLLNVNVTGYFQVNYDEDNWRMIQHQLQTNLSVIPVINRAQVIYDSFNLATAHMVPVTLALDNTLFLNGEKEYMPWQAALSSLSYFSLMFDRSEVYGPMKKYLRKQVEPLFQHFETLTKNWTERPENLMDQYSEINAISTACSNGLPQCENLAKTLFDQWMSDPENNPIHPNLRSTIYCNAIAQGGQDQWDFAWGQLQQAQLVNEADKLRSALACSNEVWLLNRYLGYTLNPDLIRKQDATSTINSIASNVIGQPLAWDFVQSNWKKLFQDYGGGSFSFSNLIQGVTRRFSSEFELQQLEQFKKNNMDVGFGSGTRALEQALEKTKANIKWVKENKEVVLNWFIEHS

B1: GST-tagged FaeG fusion protein of F4ab (natural protein)
chain: WMTGDFNGSVDIGGSITADDYRQKWEWKVGTGLNGFGNVLNDLTNGGTKLTITVTGNKPILLGRTKEAFATPVSGGVDGIPQIAFTDYEGASVKLRNTDGETNKGLAYFVLPMKNAEGTKVGSVKVNASYAGVFGKGGVTSADGELFSLFADGLRAIFYGGLTTTVSGAALTSGSAAAARTELFGSLSRNDILGQIQRVNANITSLVDVAGSYREDMEYTDGTVVSAAYALGIANGQTIEATFNQAVTTSTQWSAPLNVAITYY
B2: APN∆1 (401–963 AA) (domain or fragment)
chain: DLWLNEGFASYVEYLGADHAEPTWNLKDLIVPGDVYRVMAVDALASSHPLTTPAEEVNTPAQISEMFDSISYSKGASVIRMLSNFLTEDLFKEGLASYLHAFAYQNTTYLDLWEHLQKAVDAQTSIRLPDTVRAIMDRWTLQMGFPVITVDTKTGNISQKHFLLDSESNVTRSSAFDYLWIVPISSIKNGVMQDHYWLRDVSQAQNDLFKTASDDWVLLNVNVTGYFQVNYDEDNWRMIQHQLQTNLSVIPVINRAQVIYDSFNLATAHMVPVTLALDNTLFLNGEKEYMPWQAALSSLSYFSLMFDRSEVYGPMKKYLRKQVEPLFQHFETLTKNWTERPENLMDQYSEINAISTACSNGLPQCENLAKTLFDQWMSDPENNPIHPNLRSTIYCNAIAQGGQDQWDFAWGQLQQAQLVNEADKLRSALACSNEVWLLNRYLGYTLNPDLIRKQDATSTINSIASNVIGQPLAWDFVQSNWKKLFQDYGGGSFSFSNLIQGVTRRFSSEFELQQLEQFKKNNMDVGFGSGTRALEQALEKTKANIKWVKENKEVVLNWFIEHS
B3: APN∆5 (332–963 AA) (domain or fragment)
chain: PLPKSDQIALPDFNAGAMENWGLVTYRENALLFDPQSSSISNKERVVTVIAHELAHQWFGNLVTLAWWNDLWLNEGFASYVEYLGADHAEPTWNLKDLIVPGDVYRVMAVDALASSHPLTTPAEEVNTPAQISEMFDSISYSKGASVIRMLSNFLTEDLFKEGLASYLHAFAYQNTTYLDLWEHLQKAVDAQTSIRLPDTVRAIMDRWTLQMGFPVITVDTKTGNISQKHFLLDSESNVTRSSAFDYLWIVPISSIKNGVMQDHYWLRDVSQAQNDLFKTASDDWVLLNVNVTGYFQVNYDEDNWRMIQHQLQTNLSVIPVINRAQVIYDSFNLATAHMVPVTLALDNTLFLNGEKEYMPWQAALSSLSYFSLMFDRSEVYGPMKKYLRKQVEPLFQHFETLTKNWTERPENLMDQYSEINAISTACSNGLPQCENLAKTLFDQWMSDPENNPIHPNLRSTIYCNAIAQGGQDQWDFAWGQLQQAQLVNEADKLRSALACSNEVWLLNRYLGYTLNPDLIRKQDATSTINSIASNVIGQPLAWDFVQSNWKKLFQDYGGGSFSFSNLIQGVTRRFSSEFELQQLEQFKKNNMDVGFGSGTRALEQALEKTKANIKWVKENKEVVLNWFIEHS
B4: GST-tagged FaeG fusion protein of F4ad (natural protein)
chain: WMTGDFNGSVDIGGSITADDYRQKWEWKVGTGLNGFGNVLNDLTNGGTKLTITVTGNKPILLGRTKEAFATPVTSGVDGIPHIAFTDYEGASVELRNPDGETEKGLAYFVLPMKNAEGTKVGSVKVNASYAGALGRGGVTSADGELMSLFAEGSHAIFYGGLPTNVKNSELKGGSAAAARTELFGSLSKNDILGQIQRVNANITSLVNVPGSFNENMAYTDGSVVSVAYALGIANGQTIEATFNQAVTTSTQWSAPLNVAITYY

Columns and labels:
Details in all cases: both partners purified
[1] = biological target: T1, porcine aminopeptidase N (APN), …; experiment: peptide or protein array; FaeG membrane: 205 spots of 13-mers offset by 3 on cellulose membrane, incubated with 1 mg/mL purified soluble APN, blotted with polyclonal antibodies against APN; intensity > 30% of the strongest spot positive
[2] = biological target: T1, porcine aminopeptidase N (APN), …; experiment: ELISA; APN protein coated on plates, incubated with FaeG peptides, fusion FaeG proteins or F4 fimbriae; absorbance at 450 nm
APN∆1 (401–963 AA) = biological target: B2; experiment: ELISA; indirect ELISA: APN and its five truncated proteins coated at 100 μg/mL in carbonate-bicarbonate buffer pH 9.6, incubated with 100 μg/mL FaeG fusion protein, detected with anti-F4 monoclonal antibody
APN∆5 (332–963 AA) = biological target: B3; experiment: as above
[3] = biological target: GST-tagged FaeG fusion protein of F4ac (Escherichia coli, UniProt P14190 22-283); experiment: as above

Binder: NASYAGVFGKGGV [FaeG membrane spot 50 (148–160 AA), F4ab]
- binding result [1]: binds

Binder: LRAIFYGGLTTTV [FaeG membrane spot 59 (175–187 AA), F4ab]
- binding result [1]: binds

Binder: NASYAGVLGRGGV [FaeG membrane spot 116 (149–161 AA), F4ac]
- binding result [1]: binds

Binder: {FITC-Ahx}-NASYAGVFGKGGV [peptide F4ab 148–160]
- binding result [2]: binds

Binder: {FITC-Ahx}-TKLFGSLSRNDILGQIQRV [peptide F4ac 200–218]
- binding result [2]: binds

Binder: {FITC-Ahx}-ARTELFGSLSKNDILGQIQ [peptide F4ad 200–218]
- binding result [2]: binds

Binder: B1
- binding result [2]: binds
- binding result (APN∆1 (401–963 AA)): binds
- binding result (APN∆5 (332–963 AA)): binds

Binder: B2
- binding result [3]: binds

Binder: B3
- binding result [3]: binds

Binder: B4
- binding result [2]: binds
- binding result (APN∆1 (401–963 AA)): binds
- binding result (APN∆5 (332–963 AA)): binds

Binder: LSSIFYGGLPRGS [FaeG membrane spot 125 (176–188 AA), F4ac]
- binding result [1]: binds

Binder: TKLFGSLSRNDILGQIQRV [FaeG membrane spots 133–135 (200–218 AA), F4ac]
- binding result [1]: binds

Binder: ASYAGALGRGGVT [FaeG membrane spot 172 (149–161 AA), F4ad]
- binding result [1]: binds

Binder: HAIFYGGLPTNVK [FaeG membrane spot 181 (176–188 AA), F4ad]
- binding result [1]: binds

Binder: ARTELFGSLSKNDILGQIQ [FaeG membrane spots 189–191 (200–218 AA), F4ad]
- binding result [1]: binds
